Experimental data published in patent publication US20050032696A1.

Biological target: MEF2C (pcDNAMEF2C, mouse MEF2C cDNA) (mouse) (UniProt Q8CFN5)
Assay: cell-based or functional assay

Chain of MEF2C (pcDNAMEF2C, mouse MEF2C cDNA) (mouse) (Q8CFN5 whole entry): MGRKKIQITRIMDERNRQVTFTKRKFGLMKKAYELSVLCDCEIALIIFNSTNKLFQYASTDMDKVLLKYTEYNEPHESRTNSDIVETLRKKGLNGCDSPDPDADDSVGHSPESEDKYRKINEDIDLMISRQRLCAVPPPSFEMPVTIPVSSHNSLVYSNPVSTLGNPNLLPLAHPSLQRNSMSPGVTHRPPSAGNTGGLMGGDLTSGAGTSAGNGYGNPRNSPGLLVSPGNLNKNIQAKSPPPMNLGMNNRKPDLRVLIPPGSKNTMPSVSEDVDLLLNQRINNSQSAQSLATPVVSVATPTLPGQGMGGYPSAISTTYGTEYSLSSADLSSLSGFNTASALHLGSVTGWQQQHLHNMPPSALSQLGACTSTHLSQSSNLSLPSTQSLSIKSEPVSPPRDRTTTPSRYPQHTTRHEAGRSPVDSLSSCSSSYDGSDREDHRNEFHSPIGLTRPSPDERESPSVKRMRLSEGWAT

With “hMusTRD1α1944aa (pcDNA3.1hMusTRD1α1944aamyc/his) (from UniProt Q9UHL9 1-959)” the MEF2C-mediated transcriptional activation of the hTnIslow USE (luciferase reporter, co-transfected C2C12 cells) was 3 fold.
